From patent US20160032017A1 (ACADEMIA SINICA, published 2016)

Tests used:
[1] = biological target: T1, synthetic 22 amino acid peptide P(25→46), GLPRAAGGSVPHPRCHCGAGRA (human); test: ELISA, plate coated with P(25→46)
T1 construct: Residues 25-46 are counted on the CεmX domain; The peptide was coated on the ELISA plates without a carrier; the OVA conjugate was used only for immunization; also called target antigen peptide
T1 peptide: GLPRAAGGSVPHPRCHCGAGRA
Procedure: To screen hybridomas for antibody secretion and to map the epitopes of secreted antibodies, the wells of microtiter plates were coated by incubating them overnight at 4° C. with 10 μg/mL of P(25→46) in 0.1 M carbonate buffer, pH 9.6. The wells were first blocked for 1 hour with 1% bovine serum albumin (BSA) in phosphate buffered saline (PBS), pH7.3, and then incubated for 1 hour at 37° C. at various dilutions with antisera or control antibodies. The wells were then washed and the ligand-bound antibodies detected by horse radish peroxidase (HRP)-conjugated goat anti-mouse IgG, Fcγ fragment specific (Jackson ImmunoResearch), or anti-human IgG, Fcγ fragment specific (Jackson ImmunoResearch) at a dilution of 1:10,000. To detect the ligand-bound antibodies, the wells were incubated for 1 hour at 37° C., followed by incubation with TMB (3,3′,5,5′-tetramethylbenzidine) substrate (Clinical Scientific Products).
One of the monoclonal antibodies specific for an epitope within the P(25→46), herein designated mAb 23B11, was subjected to epitope mapping studies. Several peptides representing parts of the consecutive P(25→46) were synthesized, including P(29→46) (SEQ ID NO:1); P(31→46) (SEQ ID NO:3), P(33→46) (SEQ ID NO:4), P(27→40) (SEQ ID NO:5), and […] (SEQ ID NO:6), as shown in FIG. 1A. […] The reactivity of mAb 23B11 with the synthesized peptides were analyzed by ELISA. […]

[2] = biological target: T2, synthetic peptide P(33→46), SVPHPRCHCGAGRA (human); test: ELISA on synthetic CεmX peptides
T2 construct: Residues are counted on the CεmX domain
T2 peptide: SVPHPRCHCGAGRA

[3] = biological target: T3, synthetic peptide P(29→46), AAGGSVPHPRCHCGAGRA (human); test: ELISA on synthetic CεmX peptides
T3 construct: Residues are counted on the CεmX domain
T3 peptide: AAGGSVPHPRCHCGAGRA

[4] = biological target: T4, synthetic peptide P(27→40) (human); test: ELISA on synthetic CεmX peptides
T4 construct: Residues are counted on the CεmX domain; also called Peptide M1′-8
T4 peptide: PRAAGGSVPHPRCH

Measured: binding result

B1: monoclonal antibody mAb 23B11 (antibody, V domains shown)
VH: EVQLQQSGAELMKPGASVKISCKASGYTFSSYWIEWVYQRPGHGLEWIGEILPGSGSSNYNEKFEGKATFTADTSSNTAYMHLSSLTSEDSAVYYCARWDYYGGRGFDYWGQGTTLTAAA
VL: DIVMTQAAPSVPVTPGESVSISCRSSKSLLHSNGNIYLHWFLQRPGQSPQLLIYRMSNVASGVPDRFSGSGSGTVFTLRISRVEAEDVGVYYCMQNLEYPLTFGAGTKLELK
notes: Murine hybridoma antibody from BALB/c mice, detected with anti-mouse IgG
binds: all assays above
